Results as given in the nanobody polyreactivity screen of Harvey et al. (2022).

Assay: yeast display, Sf9 membrane polyspecificity reagent, FACS + sequencing; frameworks hold sequencing errors
Procedure, shortened: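 Galactose induction of a Saccharomyces cerevisiae BJ5465 synthetic nanobody display library ran 36–48 hours. The cells were then stained for 1 hour at 4 °C with 10% biotinylated, detergent-solubilized Sf9 membrane reagent, pulled down on streptavidin microbeads and FACS-sorted into low and high (top ~1%) gates on expression and reagent-binding fluorescence. Labels for polyreactivity follow the gate of origin.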

| Sequence | polyreactivity (PSR sort gate) |
| --- | --- |
| QVQLVESGGGLVQAGGSLRLSCAASGGIFRYYALGWYRPAPGKERELVAASSRSGDSTYYADSVKGRFTISRDNAKNTVYLQMNSLKPEDTAVYYCAKDNDDVHLVHLDYNSDRYGYWGPGTQVTVSS | high polyreactivity |
| QVQLVESGGGLVQAGGSLRLSCAASGRTLSYYAMGWYRQAPGKERELVAAIRHSAGSTYYADSVKGRFTISRDTAKNTVYLQMNSLKPEDTAVYYCAKKYYGHRYPSIYDYWGQGTQVTVSS | high polyreactivity |
| QVQLVESGGGLVQAGGSLRLSCAASGRIFRGNAMGWYRQAPGKERELVATITKRGGSTYYADSVKGRFTISRDNAKNTVYLQMNSLKPEDTAVYYCNTRTYGYLTQKYDYWGQGTQVTVSS | high polyreactivity |
| QVQLVESGGGLVQAGGSLRLSCAASGSIFTRYVMGWYRQAPGKERELVAAISGRGSSTYYADSVKGRFTISRDNAKNTVYLQMNSLKPEDTAVYYCAAEIVVFYSEGQRNTFYYWGQGTQVTVSS | high polyreactivity |
| QVQLVESGGGLVQAGGSLRLSCAASGRIFIDYAMGWSRQAHGKERELVAAIDSGGNSNYADSVKGRFTISRDNAKNSVYLQKNSLKPEDTAVYYCNASGVTTDIAGVYWGQGTQVSVSS | low polyreactivity |
| QVQLVESGGGLVQAGGSLRLSCAASGFTFGVYAMGWYRQAPGKERDLVAAISTTVGSTYYADSVKGRFTISRDNAKNTVYLQMNSLKPEDTAVDYCAAEYTGYINYYIYEYWGQGTQVTVSS | low polyreactivity |
| QVQLVESGGGLVQAGGSLRLSCAASGSTFYLNVMGWYRQAPGKERELVAAISSGDGSTYYADSVKGRFTISRDNAKNTVYLQMNSLKPEDTAVYYCAAEPDTEVDYDYWGQGTQVTVSS | low polyreactivity |
| QVQLVESGGGLVQAGGRLRLSCAASGRIFTYYVMGWYRQAPGKERELVASISGSGGRTYYADSVKGRFTISRDNAKNTVYLQMNSLKPEDTAVYYCATRLYKRTRTITYGYWGQGTQVTVSS | high polyreactivity |
| QVQLVESGGGLVQAGGSLRLSCAASGLIFYIYMGWYRQAPGKERELVAVISSSGNSTYYADSVKGRFTISRDNEKNTVYLQMNSLKPEDTAVYYCNASAYYPPSSSRYDYWGQGTQVTVSS | low polyreactivity |
| QVQLVESGGGLVQAGGSLRLSSAASGRTLFDNAMGWYRQAPGKEREWVAAIRSDGNTNYADSVKGRFTISRDNAKNTVYLQMNSLKPEDTAVYYCNARSYVGSSRDNYWGQGTQVTVSS | low polyreactivity |
| QVQLVESGGGLVQAGGSLRLSCAASGSIFHGNAMGWYRQAPGKERELVAAITGRGVSTYYADSVKGRFTISRDNAKNTVYLQMKSLKPEDTAVYYCAAVRSKYWYYQGGYSSYGYWGQGTQVTVSS | high polyreactivity |
| QVQLVETGGGLVQAGGSLRLSCAASGSIFEYNAMGWYRQAPGKERELVAAISWSSGTTYYADSVKGRFTISRDNAKNSVYLQMNSLKPEDNAVYYCNAGRYGKDSVYWGQVTQVTVSS | low polyreactivity |
| QVQLVESGGGLVQAGGTHRLSCSASGFIFCKYAMGWYRQAPGKERELVAVITRSGSRTYYADSVKGRFTISRDNAKNTVYLQMNSLKPEDTAVYYCATENVYAYDYWGQGTQVTVSS | high polyreactivity |
| QVQLVESGGGIVQAGGSLRLSCAASGFIFYWNAMGRYRQAPGKERELVAGITSGGDTNYADSVKGRFTISRDNAKITVYLQMNSLKPEDTAVYYCAAEGFRGYGYWGQGTQVTVSS | low polyreactivity |
| QVQLVESGGGLVQAGGSLRLSCADSGLIFGRNAMGWYRQAPGKERELVAAITSGGSTYYADSVKGRFTISRDNAKNTVYLQRNSLKPEDTAVYYCAADVVDLYLLDYWGQGTQVTVSS | low polyreactivity |
| QVQLVESGGGLVQAGGSLRLSCAASGRIFGPYAMGWYRQAPGTERELVAAIRASSSSTYYADSVKGRFTISRDNAKNTVYLQMNSLKPEDTAVYYCAADWYYGYAWKYGYWGQGTQVTVSS | low polyreactivity |
| QVQLVESGGGLVQAGGSLRLSCAASGFTFRYYAMGWYRQAPGKERELVAAITSGDSTYYADSVKGRFTISRDNAKNTVYLQMNSLKPEDTAVYYCNKDRRPTADFGYWGQGTQVTVSS | high polyreactivity |
| QVQLVESGGGLVQAGGSLRLSCAASGSIFGTNGMGWYRQAPGKERELVAAITRRGGSTYADSVKGRFTISRDNAKNTVYLQMNSLKPEDTAVYYCAVDQGYVVRLAWIYGYWGQGTQVSVSS | low polyreactivity |
| QVQLVESAGGLVQAGGSLRLSCAASGSTFYLNAMGWYRQAPGKERELVATINSSGSTYYADSVKGRFTISRDNAKNTVYLQMNSLKPEDTAVYYCNTVDSYVRSDYWGQGTQVPVSS | low polyreactivity |
| QVQLVESGGGLVQAGGSLRLSCAASGFIFVFYDMGWYRQAPGKERELVAGITRNDGSTYYADSVKGRFKISRDNAKNTVYLLMNSLKPEDTAVYYCAADRVRRNDKLAYDYWGQGTQVTVSS | low polyreactivity |
| QVQLVESGGGLVQAGGSLRLSCAASGSTFRVYAMGWYRQAPGKERELVAAISWSGGRTYYADSVKGRFTISRDNAKNTVYLQMNSLKPEDTAVYYCAKPGYLRPSRYDYWGQGTQVTVSS | high polyreactivity |

| Sequence | polyreactivity (PSR sort gate) |
| --- | --- |
| RVQLQESGGGLVQAGGSLRLSCEASGTIFIRGDMGWYRQATGKEREFVATIDTGSNTYYADSEKGRFTISRDNAKNAVYLQMNCLKPGDTAVYYCVVDYQLSGRLRYWGQGTQVTLSS | low polyreactivity |
| QVKLQGSGGGLAQAGDSLRLSCAASGTIFSEYNNGLVSPGAGQRTRTCCRYWCWGNTYYADSAKGRFTTSRDNAKNSVYLQKNSLKPEDTAVYYCAFNLPYPSRHIYRGQGTQVTVSS | high polyreactivity |
| QVQLEESGGGLVQAGGSLRLSCAASGRTSLAYAKGWYRQAPGKERELVAGITSGGNTNYADSVKGRFTISRDNAKNTVYLQMNSLKPEDTAVYSCNKKKRWQWYSESVLVYLGFYSWGQGTQVTVSS | low polyreactivity |
| QVQLVESGRGLVQAGGSLRLSCAASGSTFPKNAMGWYRQAPGKERELVASISSDGSTYYADSVKGRFTISRDNAKNTVYLQMNSLKPEDTAVYYCAAVLWEPPVHPGYDYWGQVTQVTVSS | low polyreactivity |
| QVQLVESGGGLVQAGGSLRLSCAASGSTFLSYAMGWYRQAPGKERELVATINRGGSTYYADSVKGRFTISRDNAKNTVYLQMNSLKPEDTAVYYCAKANKRGRYNYWGQGTQVTVSS | high polyreactivity |
| QVQLVESGGGLVQAGGSLRLSCAASGSIFFRNAMGWYRQAPGKERELVAAITSGGSTYYADSVKGRFTISRDNAKNTVYLQMNSLKPEDTAVYYCNREFWRSSSYRYYYWGQGTQVTVSS | high polyreactivity |
| QVQLVESGGGLVQAGGSLRLSCAASGRTFGQYAMGWYRQAPGKERELVAAISTRGGSTYYADSVKGRFTISRDNAKNTVYLQLNSLKPEDTAVYYCAARQGWFAGYEYWGQGTQVTVSS | low polyreactivity |
| QVQLVESGGGLVQAGGSLRLSCAASGIIFDTYAMGWYIQAPGKERELVAAISRSGDTTYYADSVKGRFTISRDNAKNTVYLQMNSLKPEDTAVYYCNARQSRWDKYDYWGQGTQVTVSS | high polyreactivity |
| QVQIVESGGGLVQAGGSLRLSCAASGSIFARMAMGWYRQAPGKEWELVAAITTGGITNYADSLKGLFTISRDNAKNTVYLQMNSLKPDDTAVYYCAATSWRYQQSTRYKGRRYYSWGQGTQVTVSS | high polyreactivity |
| QVQLVESGGGLVQAGGSLRLSCAASGIIFGHYAMGWYRQAPGKERELVAAIRSSGGTTYYADSVKGRFTISRDNAKNTVYLQMNSLKPEDTAVYYCAKRGVHLYHDYYWGQGTQVTVSS | low polyreactivity |
| QVQLVESGGGLVQAGGSLRLSCAASGSIFGYYAMGWYRQAPGKERELVAAIRRSGGSTYYADSVKGRFTISRDNAKNTVYLQMNSLKPEDTAVYYCAARFKSSDWHYYYWGQGTQVTVSS | high polyreactivity |
| QVQLVESGGGLVQAGGSLRLSCAASGSIFRRYTMGWYRQAPGKEREFVAVISRDGGSTYYADSVKGRFTISRDNAKNTVYLQMNSLKPEDTAVYYCAARLVRRYDYDYWGQGTQVTVSS | high polyreactivity |
| QDQLVESGGGLVHAGGSLRLSCAASGNNFSSYVMGWYRQATGKERELVAAISSRGGSTYYADSVKGRFTISRDNSKNTVYLQMNCLKPEDTAVYYCAARYLSCYDWGQGTQVSVSS | high polyreactivity |
| QVQLVESGGGLVQAGGSLRLSCAASGFTFRYYAMGWYRQAPGKEREFVAAITYNGVSTYYADSVKGRFTISRDNAKNTVYLQMNSLKPEDTAVYYCAADVLLSRSNTPQRPSRLYYWGQGTQVTVSS | high polyreactivity |
| QVQLGESGGGLVQAGGSLRLSCAASAYIFGSYAMGRSRQAAGKERELVATISYRAGRTYYADSVKGRFTISRDNAKNTVYLQMNSLKPEYTAVYFSDADFVIDLEYDYWGQGTQVTVSS | low polyreactivity |
| QVHLVESGGGLVQAGGSLRLSCAASGIIFPSYAMGWYRQAPGKERELVAAIDGSGGITYYADSVKGRFTISRDNAKNTVYLQLNSLKPEDTAVYYCNAEREYYDYGNDDYWGPGTQVTVSS | low polyreactivity |
| QVQLVESGGGLVQAGGSLRLSCAASGFTFPNAMGWYRQAPGKERELVATISSSGGSTYYADSVKGRFTISRDNAKNTVYLQMNSLKPEDTAVYYCAARTRQYWIYRAYRDDYWGQGTQVTVSS | low polyreactivity |
| QVQLVESGGGLVQAGGSLRLSSAASGRIFNSYAMGWYRQAPGKERELVAIIRSSGTTYYADSVKGRFTISRDNAKNSVYVQMNSLKPEDTAVYDCAADPYYWRQFNYDYWGHGTQVTVSS | high polyreactivity |
| QVQLVESGGGLVQAGGSLRLSCAASGSTFGDYAMGWYRPAPGKERELVAAITIGGITTYADSVKGRFTISRDNAKNTVYLQMNSLKPEDTAVYYCAAAERGDWDDYWGQGTQVTVSS | low polyreactivity |
| QVQLVESGGGLVQAGGSLRLSCAASGLTFTYYAMGWYRQAPGKERELVAAITYSGDSKYYADSVKGLFTISRDNAKNTVYLQMNSLKPEDTAVYYCNAEQYLYYILGNYDYWGQGTQVTVSS | low polyreactivity |
